This is an account of results in paper PMC12412785.

For series [1], the target named is 6His-PpBRCA2-Cter (amino acids 251–391) (P. patens). Nature of the series: BLI; 6His-PpBRCA2-Cter immobilised on Ni-NTA biosensors, PpRAD51-2 in solution (1.88–30 nM); buffer A with 0.1% Tween-20; 25°C. A general note: BLI is a label-free optical method that tracks binding on a fibre tip over time.
Series [2] has as its target biotinylated PpBRCA2-BRC1 peptide (P. patens). Nature of the series: BLI; biotinylated BRC peptides (0.5 μM) immobilised on streptavidin biosensors, PpRAD51-2 in solution in two-fold serial dilutions; 25°C; buffer A (25 mM Tris pH 7.5, 100 mM Na2SO4, 5 mM β-mercaptoethanol) with 0.05% Tween-20; Kd in steady-state mode.
Series [3] concerns the target biotinylated PpBRCA2-BRC2 peptide (P. patens). Described as above.
Series [4] addresses biotinylated PpBRCA2-BRC4 peptide (P. patens). Described as above.
For series [5], the target named is PpRAD51-2, purified recombinant (P. patens).
Series [6] deals with PpBRCA2-NterT138 (Physcomitrium patens). Description: BLI. The following applies: text cites Fig. 7B; Kd in Fig. 7C not in text; EMSA: 10 mM Tris-HCl pH 7.5, 50 mM NaCl, 5 mM MgCl2, 2 mM ATP, 1 mM DTT, 37 C, 7 min (RAD51/DMC1 15 min), 0.01% glutaraldehyde; BLI: 25 mM Tris pH 7.5, 100 mM …. (In general: Mobility shift assays separate free from complexed probe on a gel.)

A value given as a limit tells only on which side of the number the result lay.

Usually Kd stands for the concentration at which binding is half-saturated. As to “PpRAD51-2, purified recombinant (natural protein)”, the Kd in series [1] is 4.3 nM; in series [2] it was 400 nM; in series [3], 800 nM; in series [4], 400 nM.
Regarding “6His-PpBRCA2-Cter (amino acids 251–391) (domain or fragment)”, the concentration needed for complete inhibition of PpRAD51-ssDNA filament formation (EMSA; 1 μM RAD51-2, 3 μM 100 nt ssDNA, 0–4 μM PpBRCA2-Cter) in series [5] amounted to 2 µM.
100 nt ssDNA (BLI) showed a fold decrease in affinity relative to PpBRCA2-Nter (fold weaker affinity than PpBRCA2-Nter) in series [6] of 50.
Regarding biotinylated PpBRCA2-BRC4 peptide, in series [5], the concentration needed for complete inhibition of PpRAD51-ssDNA filament formation (EMSA; 1 μM RAD51-2, 3 μM 100 nt ssDNA, 0–4 μM PpBRCA2-BRC4) was above 4 µM.
